This note sets out measurements from US20060024661A1, “Modulation of CRF potentiation of NMDA receptor currents via CRF receptor 2” (The Regents of the University of California, priority 2003, published 2006).

Test [1] concerns the target CRF receptor 2 (CRF-R2) (mouse) (UniProt Q60748). The test can be described thus: cell-based or functional assay.
For test [2], the target named is CRF receptor 1 (CRF-R1) (mouse) (UniProt P35347). The test is described as follows: cell-based or functional assay.
Chain of CRF receptor 1 (CRF-R1) (mouse) (P35347 24-415): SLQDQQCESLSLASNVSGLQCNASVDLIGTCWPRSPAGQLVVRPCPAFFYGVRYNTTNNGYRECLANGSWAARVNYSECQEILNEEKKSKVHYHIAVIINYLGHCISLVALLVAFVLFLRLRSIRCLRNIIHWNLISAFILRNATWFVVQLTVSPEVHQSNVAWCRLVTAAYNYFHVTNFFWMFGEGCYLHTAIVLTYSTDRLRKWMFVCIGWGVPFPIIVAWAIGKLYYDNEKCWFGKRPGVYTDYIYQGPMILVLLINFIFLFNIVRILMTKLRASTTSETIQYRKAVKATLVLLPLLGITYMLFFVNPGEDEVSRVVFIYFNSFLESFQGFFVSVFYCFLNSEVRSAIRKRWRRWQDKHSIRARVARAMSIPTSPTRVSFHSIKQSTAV

Chain of CRF receptor 2 (CRF-R2) (mouse) (Q60748 20-411): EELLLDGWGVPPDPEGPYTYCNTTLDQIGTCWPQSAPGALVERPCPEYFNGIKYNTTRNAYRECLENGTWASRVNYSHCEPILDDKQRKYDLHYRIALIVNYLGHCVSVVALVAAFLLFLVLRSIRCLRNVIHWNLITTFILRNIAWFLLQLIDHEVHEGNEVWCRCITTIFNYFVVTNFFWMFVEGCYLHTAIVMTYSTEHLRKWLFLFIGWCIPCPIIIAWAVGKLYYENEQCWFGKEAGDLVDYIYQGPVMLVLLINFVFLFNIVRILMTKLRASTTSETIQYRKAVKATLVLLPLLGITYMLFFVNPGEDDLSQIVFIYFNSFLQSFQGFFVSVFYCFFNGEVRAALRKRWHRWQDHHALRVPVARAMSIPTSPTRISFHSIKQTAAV

As for Antisauvagine-30 (peptide), the NMDAR EPSCs (% of baseline) 15 mins after CRF onset in the presence of 30 nM Antisauvagine-30 in test [1] stood at 114%.

As to “human/rat corticotrophin-releasing factor (CRF) (from UniProt P06850 154-194) (peptide)”, in test [2], the hippocampal CA1 field potentials (% of baseline), CRF 1 µM plus 3 µM CP-154,526 (selective CRF-R1 antagonist, small molecule) was 82.9% and the hippocampal CA1 field potentials (% of baseline), CRF 1 µM, 15 mins after CRF onset amounted to 143%. For the same substance, in test [1], the NMDAR-mediated EPSCs (% of baseline) in VTA dopamine neurons, CRF 100 nM, 25 mins after CRF onset was 128%.
